Data on one substance can be found in article PMC7394266.

In assay [1] the target is PD-L1 IgV-TIM-3 chimera with K124S in the PD-L1 IgV domain, on transfected COS cells (human) (UniProt Q9NZQ7). Kind of assay: flow cytometry on cells. In general terms: In flow cytometry, cells or beads pass a laser one at a time.
Assay [2] concerns the target PD-L1 IgV-TIM-3 chimera with M115A in the PD-L1 IgV domain, on transfected COS cells (human) (UniProt Q9NZQ7). Kind of assay: flow cytometry on cells.

As to “human B7–1-hIgG1 recombinant fusion protein (from UniProt P33681 35-242) (Fc fusion)”, the percent decrease in binding against the unmutated chimera in assay [1] and in assay [2] was 80% in each case.
